Test results: publication doi:10.64898/2025.12.30.697096 (bioRxiv, 2025)
No end group written: not given here. *: point of attachment. MTSL = nitroxide spin label, CC1(C)C=C(CS*)C(C)(C)N1[O]

B1: Glu3-tagged Bax α9 peptide (Bax residues Gly166 to Gly192) (peptide, UniProt Q07812 166-192, looked up)
chain: GTPTWQTVTIFVAGVLTASLTIWKKMG
B2: Bax (α9) G179C with MTSL spin probe (peptide, UniProt Q07812 166-192, looked up)
chain: GTPTWQTVTIFVAC(MTSL)VLTASLTIWKKMG
B3: Bax (α9) T172C with MTSL spin probe (peptide, UniProt Q07812 166-192, looked up)
chain: GTPTWQC(MTSL)VTIFVAGVLTASLTIWKKMG
B4: Bax (α9) W188C with MTSL spin probe (peptide, UniProt Q07812 166-192, looked up)
chain: GTPTWQTVTIFVAGVLTASLTIC(MTSL)KKMG

How the values were obtained:
cross-linking = target: the molecule itself; assay: cross-linking
[1] = target: B1; assay: NMR paramagnetic relaxation enhancement

| Binder | stoichiometry N (cross-linking) | binding result [1] |
| --- | --- | --- |
| B1 | 2 | – |
| B2 | – | binds |
| B3 | – | binds |
| B4 | – | binds |
